Results as given in PMC2955292 (Chemistry & biology, 2010).
Where “and” joins values, the source holds several entries; their conditions need not be identical. Equal entries are not always repeated.

Target: the molecule itself
Assay: AUC

B1: Escherichia coli ClpP (enzyme)
chain: not shown
stoichiometry N: 14 and 7
